According to patent US20140249076A1 (AstraZeneca / MedImmune, published 2014):
Numbered stars: 1 amine (or outer) side, 2 acyl side, 3 side chain; on linkers, the order of the positions; unused ones are H or OH. Side chains are listed from the residue outwards. Ends that are not written are not given here. γGlu = O=C(O)[C@H](CCC(=O)[*:2])N[*:1]

Key:
[1] = biological target: T1, amylin receptor (RNA membranes); assay: displacement of 125I-rat amylin from RNA membranes
T1 construct: Membrane preparation
From the text: Dried glass fiber plates were combined with scintillant and counted on a multi-well Perkin Elmer scintillation counter, as well known in the art.

[2] = biological target: T2, CGRP receptor (SK-N-MC cell membranes) (UniProt Q16602 23-461; O60894 27-148); assay: displacement of 125I-human CGRP from SK-N-MC cell membranes
T2 construct: whole, on cells
T2 sequence (Q16602 23-461, chain 1 of 2): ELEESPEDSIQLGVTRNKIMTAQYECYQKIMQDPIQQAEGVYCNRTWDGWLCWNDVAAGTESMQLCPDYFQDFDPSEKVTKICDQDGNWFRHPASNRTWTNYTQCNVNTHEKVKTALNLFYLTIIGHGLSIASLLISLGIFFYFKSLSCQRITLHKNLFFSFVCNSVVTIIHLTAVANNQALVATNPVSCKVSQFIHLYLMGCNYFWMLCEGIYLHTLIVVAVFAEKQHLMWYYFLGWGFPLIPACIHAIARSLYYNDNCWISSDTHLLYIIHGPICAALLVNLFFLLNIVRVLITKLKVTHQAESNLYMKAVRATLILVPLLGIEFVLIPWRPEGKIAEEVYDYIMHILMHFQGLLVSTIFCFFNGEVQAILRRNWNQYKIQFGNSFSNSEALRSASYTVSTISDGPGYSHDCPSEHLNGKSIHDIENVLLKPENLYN
T2 sequence (O60894 27-148, chain 2 of 2): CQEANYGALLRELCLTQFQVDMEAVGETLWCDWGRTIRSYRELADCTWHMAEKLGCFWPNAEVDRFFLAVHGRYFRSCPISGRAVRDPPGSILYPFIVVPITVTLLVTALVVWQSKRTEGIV
From the text: Dried glass fiber plates were combined with scintillant and counted on a multiwell Perkin Elmer scintillation counter.

Row | Binder | IC50 [1] | IC50 [2]
1 | K([γGlu-C16‑Chain])KCNTATCALQRLAQELHRLQTYPRTNVGSNTY-NH2 (ends and bridges not checked, The description is read as an extra acylated Lys placed before the N-terminus of Cmpd 17) [Cmpd 195 (Kε-(γ-Glu(Nα-C16-Chain))-Cmpd 17)] | 0.137 nM | 0.603 nM
2 | K([γGlu-C16‑Chain])CNTATCALQRLAQELHRLQTYPRTNVGSNTY-NH2 (ends and bridges not checked, Lys 1 is already present in Cmpd 17) [Cmpd 192 ([K^1ε-(γ-Glu(Nα-C16-Chain))]-Cmpd 17)] | 0.518 nM | 4.45 nM
3 | KCNTATCALQRLAQELHRLQTYPRTNVGSNTY-NH2 (ends and bridges not checked, Parent peptide of the fatty acid acylated compounds) [Cmpd 17] | 0.028 nM | 1.26 nM
